Experimental data: PMC7037862, “Tricyclic Nucleobase Analogs and Their Ribosides as Substrates and Inhibitors of Purine-Nucleoside Phosphorylases III. Aminopurine Derivatives” (Molecules, 2020)

Assays:
[1] = Ionization constants (pKa), determined spectrophotometrically; assay type: physicochemical; details: phosphate and/or acetate buffers, protonation, read-out: pKa (protonation)
Description: Fluorescence spectra were measured on a Varian Eclipse instrument (Varian Corp., Palo Alto, CA, USA), and UV absorption kinetic experiments were performed on a Cary 5000 (Varian Corp., Palo Alto, CA, USA) thermostated spectrophotometer. Fluorescence yields were determined relative to tryptophan (0.15) or 1,N^6-ethenoadenosine in water (0.56, see ref. [2]). Emission spectra were measured in semi-micro cuvettes, pathlength 4 mm, to diminish the inner-filter effect. Typical spectral resolution was 2.5 nm. The ionization constants (pKa values) were determined spectrophotometrically using 20–50 mM phosphate and/or acetate buffers.

E. coli PNP-wt = target: T1, E. coli PNP-wt (Escherichia coli, UniProt P0ABP8); assay: Enzymatic phosphorolysis of ribosides, E. coli PNP wild type; assay type: biochemical; details: relative to Vmax of guanosine phosphorolysis (=100)
T1 construct: made in house; host or cells: E. coli
T1 sequence (P0ABP8 2-239 limits assumed): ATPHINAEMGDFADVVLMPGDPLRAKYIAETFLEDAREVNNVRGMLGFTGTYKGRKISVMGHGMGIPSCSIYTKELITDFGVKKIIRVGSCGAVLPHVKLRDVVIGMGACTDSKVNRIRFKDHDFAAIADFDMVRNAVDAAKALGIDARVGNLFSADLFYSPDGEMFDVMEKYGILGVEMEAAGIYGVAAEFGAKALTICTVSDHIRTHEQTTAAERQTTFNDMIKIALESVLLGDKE
Description: (§1) Recombinant E. coli PNP, calf spleen PNP, and their mutated forms were expressed in E. coli and purified according to the procedures described earlier. Enzyme concentrations were calculated per monomer.
(§2) Enzymatic ribosylation reactions were carried out in 1 mL cuvettes (pathlength 4 mm) in ~50 mM HEPES buffer, pH 7.3, using 0.5 mM R1P as a ribose source. Reactions were followed fluorimetrically (see Section 2.4). On a larger scale (2–4 mg), the reactions were run in Eppendorf tubes, volume 2–3 mL, using either R1P (3–10 mM) or 7-methylguanosine as ribose sources. Products were purified by semi-preparative HPLC, concentrated and the final solutions kept frozen. Their structure has been confirmed by NMR (see Section 2.4 and Supplementary Materials) and by MS: comp. 3: m/z = 292.10385, comp. 4: m/z = 292.10400, comp. 5: m/z = 292.10398, calculated for C12H13N5O4 + H: 292.10403. Phosphorolysis reactions were run in 40–50 mM phosphate buffer, pH 7.0 or 6.5, and followed spectrally or fluorimetrically. Kinetic parameters were calculated by standard methods.

calf PNP-wt = target: T2, calf PNP-wt (Bos taurus, UniProt P55859); assay: Enzymatic phosphorolysis of ribosides, calf PNP wild type; assay type: biochemical; details: relative to Vmax of guanosine phosphorolysis (=100)
T2 construct: made in house; host or cells: E. coli
T2 sequence (P55859 1-289): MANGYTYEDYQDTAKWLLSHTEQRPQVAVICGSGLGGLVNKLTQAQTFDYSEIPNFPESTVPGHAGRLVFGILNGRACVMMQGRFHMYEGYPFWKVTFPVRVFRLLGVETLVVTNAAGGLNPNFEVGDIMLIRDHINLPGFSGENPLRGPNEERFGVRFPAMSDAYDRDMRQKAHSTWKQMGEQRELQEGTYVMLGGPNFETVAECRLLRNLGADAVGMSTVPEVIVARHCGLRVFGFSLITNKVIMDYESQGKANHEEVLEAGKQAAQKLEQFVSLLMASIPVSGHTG
Description: as §1, §2

[2] = substrate: c1cn2c(n1)ncc1nc[nH]c12; assay: Enzymatic ribosylation with α-D-ribose-1-phosphate, E. coli PNP wild type; assay type: biochemical
Description: as §1, §2

[3] = substrate: OC[C@H]1O[C@@H](n2ccn3c4ncnc-4cnc23)[C@H](O)[C@@H]1O; assay: Enzymatic phosphorolysis of ribosides, E. coli PNP wild type; assay type: biochemical; details: other: phosphorolysis, E. coli PNP-wt, 40 mM phosphate buffer pH 7
Description: as §1, §2

[4] = substrate: OC[C@H]1O[C@@H](n2ccn3cc4ncnc-4nc23)[C@H](O)[C@@H]1O; assay: as above; assay type: biochemical; details: other: phosphorolysis, E. coli PNP-wt, 40 mM phosphate buffer pH 7
Description: as §1, §2

[5] = substrate: c1cn2c(n1)ncc1nc[nH]c12; assay: Enzymatic ribosylation with α-D-ribose-1-phosphate, calf PNP wild type; assay type: biochemical; details: other: ribosylation by R1P, calf-wt PNP, 40 mM HEPES pH 7
Description: as §1, §2

[6] = substrate: c1cn2c(n1)ncc1nc[nH]c12; assay: Enzymatic ribosylation with α-D-ribose-1-phosphate, calf PNP N243D mutant; assay type: biochemical; details: other: ribosylation by R1P, 40 mM HEPES pH 7
Description: as §1, §2

OC[C@H]1O[C@@H](n2ccn3c4ncnc-4cnc23)[C@H](O)[C@@H]1O [Compound 5, N^2,3-etheno-2-aminopurine-N^2-β-D-riboside]
pKa [1]: 6.15 | Vmax (Relative) (E. coli PNP-wt): 115 | Vmax (Relative) (calf PNP-wt): 3

B1: E. coli PNP (wt) (Escherichia coli K-12) (protein)
chain: ATPHINAEMGDFADVVLMPGDPLRAKYIAETFLEDAREVNNVRGMLGFTGTYKGRKISVMGHGMGIPSCSIYTKELITDFGVKKIIRVGSCGAVLPHVKLRDVVIGMGACTDSKVNRIRFKDHDFAAIADFDMVRNAVDAAKALGIDARVGNLFSADLFYSPDGEMFDVMEKYGILGVEMEAAGIYGVAAEFGAKALTICTVSDHIRTHEQTTAAERQTTFNDMIKIALESVLLGDKE
notes: made in house; host or cells: E. coli
Km ([2]; other: E. coli PNP and its mutated forms): 10 µM | Km ([2]; other: ribosylation by R1P, E. coli-wt PNP, 40 mM HEPES pH 7, pH 7.0): 11 µM

B2: E. coli PNP-wt (Escherichia coli K-12) (protein)
chain: ATPHINAEMGDFADVVLMPGDPLRAKYIAETFLEDAREVNNVRGMLGFTGTYKGRKISVMGHGMGIPSCSIYTKELITDFGVKKIIRVGSCGAVLPHVKLRDVVIGMGACTDSKVNRIRFKDHDFAAIADFDMVRNAVDAAKALGIDARVGNLFSADLFYSPDGEMFDVMEKYGILGVEMEAAGIYGVAAEFGAKALTICTVSDHIRTHEQTTAAERQTTFNDMIKIALESVLLGDKE
notes: as for B1
Km [3]: ~ 20 μM | Km [4]: 47 µM

B3: calf spleen PNP (wt) (Bos taurus) (protein)
chain: MANGYTYEDYQDTAKWLLSHTEQRPQVAVICGSGLGGLVNKLTQAQTFDYSEIPNFPESTVPGHAGRLVFGILNGRACVMMQGRFHMYEGYPFWKVTFPVRVFRLLGVETLVVTNAAGGLNPNFEVGDIMLIRDHINLPGFSGENPLRGPNEERFGVRFPAMSDAYDRDMRQKAHSTWKQMGEQRELQEGTYVMLGGPNFETVAECRLLRNLGADAVGMSTVPEVIVARHCGLRVFGFSLITNKVIMDYESQGKANHEEVLEAGKQAAQKLEQFVSLLMASIPVSGHTG
notes: as for B1
Km [5]: ~8 µM

B4: calf PNP N243D (Bos taurus; N243D) (protein)
chain: MANGYTYEDYQDTAKWLLSHTEQRPQVAVICGSGLGGLVNKLTQAQTFDYSEIPNFPESTVPGHAGRLVFGILNGRACVMMQGRFHMYEGYPFWKVTFPVRVFRLLGVETLVVTNAAGGLNPNFEVGDIMLIRDHINLPGFSGENPLRGPNEERFGVRFPAMSDAYDRDMRQKAHSTWKQMGEQRELQEGTYVMLGGPNFETVAECRLLRNLGADAVGMSTVPEVIVARHCGLRVFGFSLITDKVIMDYESQGKANHEEVLEAGKQAAQKLEQFVSLLMASIPVSGHTG
notes: as for B1
Km [6]: 110 µM
